Measurements from PMC9860152.

Assays:
REST-FL = target: T1, REST-FL (human, UniProt Q13127 1-1097); assay: fluorescence anisotropy
T1 sequence: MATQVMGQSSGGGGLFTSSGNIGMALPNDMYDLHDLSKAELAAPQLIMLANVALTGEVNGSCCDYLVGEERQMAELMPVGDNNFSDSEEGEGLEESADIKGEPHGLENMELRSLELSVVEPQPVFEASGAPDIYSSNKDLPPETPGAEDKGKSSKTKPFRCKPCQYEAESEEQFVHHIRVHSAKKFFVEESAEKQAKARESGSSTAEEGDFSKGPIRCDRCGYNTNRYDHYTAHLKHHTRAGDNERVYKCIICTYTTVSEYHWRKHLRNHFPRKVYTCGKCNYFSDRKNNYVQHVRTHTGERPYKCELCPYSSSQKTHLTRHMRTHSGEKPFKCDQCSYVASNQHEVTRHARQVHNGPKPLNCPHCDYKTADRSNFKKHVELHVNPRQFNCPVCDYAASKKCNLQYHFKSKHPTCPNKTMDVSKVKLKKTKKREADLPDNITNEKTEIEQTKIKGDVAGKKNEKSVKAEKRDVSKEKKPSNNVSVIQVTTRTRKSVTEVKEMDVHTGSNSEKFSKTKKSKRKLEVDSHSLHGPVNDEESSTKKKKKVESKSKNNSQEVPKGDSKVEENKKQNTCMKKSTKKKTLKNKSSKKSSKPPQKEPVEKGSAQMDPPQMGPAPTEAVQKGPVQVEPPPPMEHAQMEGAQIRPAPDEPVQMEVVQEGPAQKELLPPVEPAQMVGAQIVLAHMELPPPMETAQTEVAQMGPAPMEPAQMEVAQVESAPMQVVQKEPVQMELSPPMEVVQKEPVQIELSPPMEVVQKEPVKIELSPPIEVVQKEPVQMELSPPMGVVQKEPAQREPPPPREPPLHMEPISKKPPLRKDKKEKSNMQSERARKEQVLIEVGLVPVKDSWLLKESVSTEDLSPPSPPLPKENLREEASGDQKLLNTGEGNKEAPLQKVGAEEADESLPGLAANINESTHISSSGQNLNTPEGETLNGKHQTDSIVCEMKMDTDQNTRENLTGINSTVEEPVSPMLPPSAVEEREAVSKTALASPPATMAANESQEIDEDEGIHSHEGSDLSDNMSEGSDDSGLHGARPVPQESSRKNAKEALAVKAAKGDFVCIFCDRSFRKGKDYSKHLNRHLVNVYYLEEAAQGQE

REST-N62 (REST4-S3) = target: T2, REST-N62 (REST4-S3) (human, UniProt A0A087X1C2 1-340); assay: fluorescence anisotropy
T2 sequence: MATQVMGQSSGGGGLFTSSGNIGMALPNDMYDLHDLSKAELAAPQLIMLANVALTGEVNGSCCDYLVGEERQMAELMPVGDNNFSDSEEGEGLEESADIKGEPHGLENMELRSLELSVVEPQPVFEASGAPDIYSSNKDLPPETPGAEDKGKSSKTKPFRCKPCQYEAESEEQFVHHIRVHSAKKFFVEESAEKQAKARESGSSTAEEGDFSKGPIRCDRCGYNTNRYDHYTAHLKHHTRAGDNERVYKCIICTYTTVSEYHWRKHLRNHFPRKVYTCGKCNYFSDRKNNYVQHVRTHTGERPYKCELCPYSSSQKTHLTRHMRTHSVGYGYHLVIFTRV

B1: NRSE (RE1) 21 bp duplex (dsDNA)
DNA 1: TTCAGCACCATGGACAGCGCC
DNA 2: GGCGCTGTCCATGGTGCTGAA
B1 was tested, and the Kd (REST-FL) was 5.7 ± 0.6 nM and the binding result (REST-N62 (REST4-S3)) was “no binding”.
